The target in test [1] is T1, GST-Dsl1p (Saccharomyces cerevisiae, UniProt P53847).
T1 construct: when introduced into full length GST-Dsl1p; made in house; host or cells: E. coli (BL21DE3 or C41DE3)
T1 sequence (P53847 1-754): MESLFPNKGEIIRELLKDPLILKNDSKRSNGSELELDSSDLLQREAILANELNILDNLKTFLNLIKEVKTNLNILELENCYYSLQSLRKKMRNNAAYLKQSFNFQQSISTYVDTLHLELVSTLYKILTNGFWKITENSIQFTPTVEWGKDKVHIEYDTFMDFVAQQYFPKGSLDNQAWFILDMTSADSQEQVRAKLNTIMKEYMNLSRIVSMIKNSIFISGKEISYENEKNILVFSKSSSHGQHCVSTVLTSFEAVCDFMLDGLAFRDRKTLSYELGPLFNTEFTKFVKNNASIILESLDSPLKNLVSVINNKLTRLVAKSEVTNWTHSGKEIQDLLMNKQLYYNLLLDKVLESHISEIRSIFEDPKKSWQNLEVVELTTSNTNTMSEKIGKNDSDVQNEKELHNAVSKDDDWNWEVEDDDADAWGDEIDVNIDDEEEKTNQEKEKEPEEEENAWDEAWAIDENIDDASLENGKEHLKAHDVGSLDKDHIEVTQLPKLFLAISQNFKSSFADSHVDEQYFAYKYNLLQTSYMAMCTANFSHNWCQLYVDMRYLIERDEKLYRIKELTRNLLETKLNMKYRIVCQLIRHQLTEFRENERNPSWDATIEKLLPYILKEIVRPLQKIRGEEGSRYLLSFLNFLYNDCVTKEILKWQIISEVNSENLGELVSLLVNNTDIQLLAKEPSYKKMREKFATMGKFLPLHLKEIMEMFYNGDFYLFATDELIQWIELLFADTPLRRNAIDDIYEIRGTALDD
Put plainly: peptide spot overlay assay: 13-mer δ-COP peptides on cellulose membrane. It is filed as binding. To be noted: 13-mer peptides spanning amino acids 191-302 of δ-COP; detection with anti-Dsl1p antibodies. An excerpt:
To further delineate the Dsl1p binding domain in δ-COP 13-mer peptides spanning amino acids 191-302 of δ-COP were synthesized on a cellulose membrane (overlap in sequence by 10 amino acids; Jerini; Berlin, Germany) and probed with to GST-Dsl1p. Anti-Dsllp antibodies were used to detect bound GST-Dsl1p. […] We cannot exclude that peptides from position 248 to 270 also bind to Dsl1p since anti-Dsl1 antibody alone gave already a weak signal with peptides derived from this region. […] To this resin we applied crude extract of E. coli cells producing a chimeric protein consisting of GST and the δ-COP binding domain (GST-L4, "WxW"; L4 = D-type-polypeptide; SED ID NO 1 ([…]-NIDDEEEKT)). After washing thoroughly, bound proteins were eluted and analyzed by SDS-PAGE followed by Coomassie staining. […]
To analyze the Ds11p binding region within the Ret2 protein overlapping 13-mer peptides (overlap 10 residues each) spanning the region between residue 191 and 302 were directly synthesized on a cellulose membrane (Jerini; Berlin, Germany). […] After 2 h incubation with purified GST-Ds11p in blocking buffer, the membrane was washed three times with Tris/HCl-buffer and bound GST-Ds11p was detected by using α-Dsl1p antibodies and the ECL detection system (AmershamPharmaciaBiotech).

Test [2] has as its target T2, GST-Dsl1p (S. cerevisiae (yeast), UniProt P53847 1-754).
T2 construct: Made in E. coli and immobilised on glutathione-Sepharose 4B; also called GST-tagged Dsl1p; full length GST-Dsl1p; not shown: glutathione S-transferase (GST) encoded by pGEX-TT (pGEX-2T with modified polylinker); placement and linker residues not
T2 sequence (looked up): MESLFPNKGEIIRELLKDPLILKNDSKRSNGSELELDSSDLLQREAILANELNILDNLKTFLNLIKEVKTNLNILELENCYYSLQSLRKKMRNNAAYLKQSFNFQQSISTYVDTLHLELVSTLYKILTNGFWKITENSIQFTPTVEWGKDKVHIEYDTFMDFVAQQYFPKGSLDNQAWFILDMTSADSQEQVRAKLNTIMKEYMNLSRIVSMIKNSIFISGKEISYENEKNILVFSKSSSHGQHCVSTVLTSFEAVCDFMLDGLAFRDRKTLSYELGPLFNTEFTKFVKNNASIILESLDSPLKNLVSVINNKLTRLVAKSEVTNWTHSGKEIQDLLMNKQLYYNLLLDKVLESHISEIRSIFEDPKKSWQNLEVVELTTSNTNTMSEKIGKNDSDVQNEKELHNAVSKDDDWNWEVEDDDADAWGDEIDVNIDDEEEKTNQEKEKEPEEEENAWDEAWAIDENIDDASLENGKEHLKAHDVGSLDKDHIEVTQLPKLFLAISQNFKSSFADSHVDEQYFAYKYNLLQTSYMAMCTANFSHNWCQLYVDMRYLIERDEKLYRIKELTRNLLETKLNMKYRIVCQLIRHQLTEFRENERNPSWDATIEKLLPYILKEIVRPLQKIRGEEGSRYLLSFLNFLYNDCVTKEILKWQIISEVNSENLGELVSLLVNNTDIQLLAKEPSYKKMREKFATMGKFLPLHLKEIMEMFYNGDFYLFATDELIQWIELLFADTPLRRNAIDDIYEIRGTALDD
Description: peptide spot overlay on cellulose membrane, detected with anti-Dsl1p antibodies.

For “R-type-peptide: peptide representing residues 242 to 254 of δ-COP, RAGHSATGGMKLG”, in the test with GST-Dsl1p [1], the “signal of bound GST-Dsl1p” value is “strongest signal”.

B1: 13-mer peptide representing residues 242 to 254 of δ-COP, synthesized on a cellulose membrane (peptide)
peptide: RAGHSATGGMKLG
notes: A spot on a peptide array of 13-mers that overlap by 10 residues and span aa 191-302; also called R-type-peptide
Regarding B1, the binding result with GST-Dsl1p [2] was “binds”.

The values above are taken from patent EP1396498A1, “A pair of polypeptides with specific and strong interaction” (Max-Planck-Gesellschaft zur Förderung der Wissenschaften …, priority 2002, dated 2004).
